Test results: US20220049236A1 (YEDA RESEARCH AND DEVELOPMENT, published 2022)

What was measured:
[1] = molecular target: T1, LOX catalytic domain (catalytic domain of human LOX, 169-417) (human, UniProt P28300 170-417); experiment: ELISA, plate coated with LOX catalytic domain
T1 construct: Expressed from pET28 in E. coli BL21 SHuffle, purified on HisTrap and labelled through its His tag for MST
T1 sequence: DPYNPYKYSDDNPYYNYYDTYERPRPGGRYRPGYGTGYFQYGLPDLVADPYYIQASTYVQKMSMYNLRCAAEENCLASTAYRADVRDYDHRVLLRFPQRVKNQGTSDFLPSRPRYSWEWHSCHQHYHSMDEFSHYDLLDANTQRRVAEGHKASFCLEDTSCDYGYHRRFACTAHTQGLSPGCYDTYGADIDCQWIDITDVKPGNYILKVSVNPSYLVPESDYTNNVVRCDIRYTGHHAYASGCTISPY
Experimental: A ninety-six-well plate (Nunc) was coated with LOX-catalytic domain, HSP70 or BSA at 10 μg/mL. After blocking with 2% BSA in PBS, the plate was incubated with Fc and Fc-LPD for 1 hour at 37° C. Bound antibodies were detected by peroxidase-conjugated antibody goat anti-human (Jackson ImmunoResearch). EC₅₀ was calculated with GraphPad Prism from […] curve fitting analysis.
The pYD5-Fc-LPD plasmid was used as a template in order to create point mutations in the three N-glycosylated sites N81, 97, 144 in the LPD, which are the N346, 362, 409 in our Fc-LPD construct with Q SEQ ID NO: 11. The mutations were performed with site-directed mutagenesis according to kit manufacturer instructions. EC₅₀ of generated Fc-LPD N346, 362, 409Q inhibitor was measured by ELISA (FIG. 1C) ranged from 10 to 2000 nM against the LOX catalytic domain (EC₅₀=58 nmol/L).

Filaggrin-2 = molecular target: T2, Filaggrin-2 (human, UniProt Q5D862 1-2391, limits assumed); experiment: IP from HDF supernatant, LFQ mass spectrometry; ratio against Fc control
T2 construct: also called FLG2

Hornerin = molecular target: T3, Hornerin (human, UniProt Q86YZ3 1-2850, limits assumed); experiment: as above
T3 construct: also called HRNR

[2] = molecular target: T4, Heat shock 70 kDa protein 1A/B (human, UniProt P0DMV9 2-641); experiment: as above
T4 construct: also called Heat shock 70 kDa protein 1B; HSPA1B

[3] = molecular target: T5, Heat shock protein HSP 90-alpha (human, UniProt P07900 2-732); experiment: as above
T5 construct: also called HSP90AA1

[4] = molecular target: T6, Heat shock cognate 71 kDa protein (human, UniProt P11142 2-646); experiment: as above
T6 construct: also called HSPA8

[5] = molecular target: T7, Heat shock protein HSP 90-beta (human, UniProt P08238 2-724); experiment: as above
T7 construct: also called HSP90AB1

[6] = molecular target: T8, 60 kDa heat shock protein, mitochondrial (human, UniProt P10809 27-573, limits assumed); experiment: as above
T8 construct: also called HSPD1; HSP60
T8 sequence (P10809 27-573 limits assumed): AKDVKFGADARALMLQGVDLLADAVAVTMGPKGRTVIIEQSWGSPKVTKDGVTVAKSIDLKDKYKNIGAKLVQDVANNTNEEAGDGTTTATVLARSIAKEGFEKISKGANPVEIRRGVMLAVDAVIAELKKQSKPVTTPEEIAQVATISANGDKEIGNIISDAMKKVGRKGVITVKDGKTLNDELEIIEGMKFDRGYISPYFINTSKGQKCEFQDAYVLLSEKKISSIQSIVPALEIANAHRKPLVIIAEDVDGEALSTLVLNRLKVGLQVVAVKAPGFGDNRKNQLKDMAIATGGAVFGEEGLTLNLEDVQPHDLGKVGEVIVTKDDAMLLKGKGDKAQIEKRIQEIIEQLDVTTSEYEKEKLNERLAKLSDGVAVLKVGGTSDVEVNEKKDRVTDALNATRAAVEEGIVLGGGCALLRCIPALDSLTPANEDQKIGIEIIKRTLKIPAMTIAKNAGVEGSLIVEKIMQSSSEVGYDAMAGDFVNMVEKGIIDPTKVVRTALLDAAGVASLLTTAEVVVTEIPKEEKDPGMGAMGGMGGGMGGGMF

T7 sequence (P08238 2-724 limits assumed): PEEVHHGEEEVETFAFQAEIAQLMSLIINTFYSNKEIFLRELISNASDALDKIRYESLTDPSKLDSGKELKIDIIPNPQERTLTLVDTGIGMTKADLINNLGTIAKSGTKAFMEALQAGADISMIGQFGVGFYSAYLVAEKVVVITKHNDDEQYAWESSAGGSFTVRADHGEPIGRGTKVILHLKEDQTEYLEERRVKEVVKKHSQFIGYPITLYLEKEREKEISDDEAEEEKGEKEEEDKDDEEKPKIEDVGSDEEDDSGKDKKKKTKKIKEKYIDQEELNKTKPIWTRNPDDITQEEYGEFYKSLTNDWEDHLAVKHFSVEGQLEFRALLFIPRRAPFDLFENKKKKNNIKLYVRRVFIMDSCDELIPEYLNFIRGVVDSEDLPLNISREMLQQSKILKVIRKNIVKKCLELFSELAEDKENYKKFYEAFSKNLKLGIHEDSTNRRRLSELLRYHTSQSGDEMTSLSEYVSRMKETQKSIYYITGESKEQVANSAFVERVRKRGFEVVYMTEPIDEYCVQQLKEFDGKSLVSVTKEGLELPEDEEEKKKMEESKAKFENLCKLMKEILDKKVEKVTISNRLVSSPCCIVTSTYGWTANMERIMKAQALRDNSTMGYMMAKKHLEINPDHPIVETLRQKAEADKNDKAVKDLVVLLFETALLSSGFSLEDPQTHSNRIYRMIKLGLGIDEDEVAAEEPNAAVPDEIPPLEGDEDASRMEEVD
T3 sequence (Q86YZ3 whole entry): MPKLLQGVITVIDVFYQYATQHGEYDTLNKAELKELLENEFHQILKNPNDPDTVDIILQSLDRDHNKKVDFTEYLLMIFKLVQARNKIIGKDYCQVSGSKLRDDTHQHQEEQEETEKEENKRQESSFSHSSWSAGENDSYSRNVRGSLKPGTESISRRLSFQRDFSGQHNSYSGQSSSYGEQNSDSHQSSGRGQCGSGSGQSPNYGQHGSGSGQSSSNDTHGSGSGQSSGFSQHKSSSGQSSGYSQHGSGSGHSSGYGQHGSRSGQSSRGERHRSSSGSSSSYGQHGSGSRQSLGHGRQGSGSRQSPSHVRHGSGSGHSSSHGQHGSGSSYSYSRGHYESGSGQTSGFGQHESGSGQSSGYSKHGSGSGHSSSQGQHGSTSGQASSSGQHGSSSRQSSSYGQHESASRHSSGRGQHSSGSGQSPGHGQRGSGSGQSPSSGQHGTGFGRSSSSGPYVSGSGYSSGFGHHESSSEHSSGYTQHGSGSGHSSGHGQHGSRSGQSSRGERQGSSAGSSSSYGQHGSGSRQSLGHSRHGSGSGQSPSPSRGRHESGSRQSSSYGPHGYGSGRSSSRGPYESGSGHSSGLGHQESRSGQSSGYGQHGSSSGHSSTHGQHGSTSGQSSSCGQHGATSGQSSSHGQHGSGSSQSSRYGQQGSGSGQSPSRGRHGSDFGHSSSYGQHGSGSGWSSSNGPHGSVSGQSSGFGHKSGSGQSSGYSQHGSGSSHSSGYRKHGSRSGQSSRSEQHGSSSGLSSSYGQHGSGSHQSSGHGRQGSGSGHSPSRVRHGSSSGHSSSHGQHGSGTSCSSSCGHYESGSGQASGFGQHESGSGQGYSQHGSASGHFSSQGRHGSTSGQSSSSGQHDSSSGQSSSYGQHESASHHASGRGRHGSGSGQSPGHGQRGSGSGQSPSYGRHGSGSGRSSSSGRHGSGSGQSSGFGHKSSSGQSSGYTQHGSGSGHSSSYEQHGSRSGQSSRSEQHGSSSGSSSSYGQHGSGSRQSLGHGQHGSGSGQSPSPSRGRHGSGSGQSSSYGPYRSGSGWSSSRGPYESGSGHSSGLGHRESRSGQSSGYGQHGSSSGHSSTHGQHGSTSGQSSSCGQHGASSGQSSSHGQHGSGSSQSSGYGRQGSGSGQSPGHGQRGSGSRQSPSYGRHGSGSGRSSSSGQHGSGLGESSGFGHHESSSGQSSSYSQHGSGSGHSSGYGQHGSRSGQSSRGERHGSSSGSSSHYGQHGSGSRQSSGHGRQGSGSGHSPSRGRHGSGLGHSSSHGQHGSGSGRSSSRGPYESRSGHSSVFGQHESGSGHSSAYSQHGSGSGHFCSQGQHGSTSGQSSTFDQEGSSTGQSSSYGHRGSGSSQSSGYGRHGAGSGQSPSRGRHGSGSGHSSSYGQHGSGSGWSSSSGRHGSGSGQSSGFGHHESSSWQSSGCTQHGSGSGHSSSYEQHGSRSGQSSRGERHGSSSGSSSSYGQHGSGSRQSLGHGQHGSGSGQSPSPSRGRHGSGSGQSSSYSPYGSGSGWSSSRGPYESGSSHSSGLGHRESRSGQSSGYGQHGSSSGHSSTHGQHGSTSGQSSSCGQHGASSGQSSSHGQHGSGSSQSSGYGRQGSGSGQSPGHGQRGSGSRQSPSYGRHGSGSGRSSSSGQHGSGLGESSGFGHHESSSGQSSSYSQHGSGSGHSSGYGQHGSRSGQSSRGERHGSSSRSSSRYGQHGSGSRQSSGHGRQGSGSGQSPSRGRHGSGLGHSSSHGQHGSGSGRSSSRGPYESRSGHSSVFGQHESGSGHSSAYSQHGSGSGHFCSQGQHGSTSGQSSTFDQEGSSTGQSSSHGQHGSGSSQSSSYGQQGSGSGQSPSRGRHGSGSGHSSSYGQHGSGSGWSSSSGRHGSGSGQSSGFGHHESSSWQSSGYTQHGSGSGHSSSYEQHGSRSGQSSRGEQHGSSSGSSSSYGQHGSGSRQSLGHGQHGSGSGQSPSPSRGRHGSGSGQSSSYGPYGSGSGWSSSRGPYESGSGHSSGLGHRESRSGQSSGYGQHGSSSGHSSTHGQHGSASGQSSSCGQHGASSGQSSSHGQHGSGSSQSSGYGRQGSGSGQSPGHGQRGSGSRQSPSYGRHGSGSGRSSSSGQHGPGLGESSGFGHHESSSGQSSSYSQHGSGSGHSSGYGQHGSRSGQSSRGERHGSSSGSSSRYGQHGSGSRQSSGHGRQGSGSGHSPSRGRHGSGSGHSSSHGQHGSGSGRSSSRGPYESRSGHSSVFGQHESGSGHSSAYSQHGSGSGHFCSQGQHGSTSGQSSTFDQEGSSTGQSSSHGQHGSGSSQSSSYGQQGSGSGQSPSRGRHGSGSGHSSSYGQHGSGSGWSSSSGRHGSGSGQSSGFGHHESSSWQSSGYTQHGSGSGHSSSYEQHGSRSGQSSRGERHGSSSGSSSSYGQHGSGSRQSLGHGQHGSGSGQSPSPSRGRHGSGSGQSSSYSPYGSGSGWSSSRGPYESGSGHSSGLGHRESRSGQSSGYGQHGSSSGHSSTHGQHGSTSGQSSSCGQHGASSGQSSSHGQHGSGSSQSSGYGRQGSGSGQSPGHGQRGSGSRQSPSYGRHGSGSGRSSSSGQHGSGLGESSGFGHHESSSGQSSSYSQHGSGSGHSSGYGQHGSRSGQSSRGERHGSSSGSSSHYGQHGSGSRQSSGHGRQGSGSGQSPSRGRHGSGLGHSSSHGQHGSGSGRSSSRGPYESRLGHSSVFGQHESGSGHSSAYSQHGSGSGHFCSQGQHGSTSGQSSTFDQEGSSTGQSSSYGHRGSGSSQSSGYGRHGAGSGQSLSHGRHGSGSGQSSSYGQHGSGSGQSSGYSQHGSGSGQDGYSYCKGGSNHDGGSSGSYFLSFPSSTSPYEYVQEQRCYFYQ
T4 sequence (P0DMV9 2-641 limits assumed): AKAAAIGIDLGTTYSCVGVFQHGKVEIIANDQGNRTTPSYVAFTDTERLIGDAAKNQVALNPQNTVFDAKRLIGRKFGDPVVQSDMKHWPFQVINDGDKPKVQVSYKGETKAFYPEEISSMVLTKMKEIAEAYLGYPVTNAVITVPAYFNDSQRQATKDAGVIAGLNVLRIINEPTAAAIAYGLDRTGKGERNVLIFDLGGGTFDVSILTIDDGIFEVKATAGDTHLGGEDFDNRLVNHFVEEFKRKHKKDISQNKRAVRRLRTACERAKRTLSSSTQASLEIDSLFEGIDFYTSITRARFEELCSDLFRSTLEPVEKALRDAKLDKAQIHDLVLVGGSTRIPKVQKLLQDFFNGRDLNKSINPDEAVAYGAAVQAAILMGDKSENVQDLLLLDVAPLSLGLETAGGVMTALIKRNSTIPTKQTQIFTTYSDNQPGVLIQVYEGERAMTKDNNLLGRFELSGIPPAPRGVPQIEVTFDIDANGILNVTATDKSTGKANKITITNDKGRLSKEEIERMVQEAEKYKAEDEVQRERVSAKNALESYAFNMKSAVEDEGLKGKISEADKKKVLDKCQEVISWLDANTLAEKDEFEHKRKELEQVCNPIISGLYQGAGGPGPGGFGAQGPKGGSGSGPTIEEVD

B1: Fc-LPD N346, 362, 409Q (Fc fusion)
chain: APPAAGQQQPPREPPAAPGAWRQQIQWENNGQVFSLLSLGSQYQPQRRRDPGAAVPGAAQASAQQPRTPILLIRDQRTAAARTRTAGSSGVTAGRPRPTARHWFQAGYSTSRAREAGASRAEQQTAPGEVPALSNLRPPSRVDGMVGD
notes: Fc-LPD with the three N-glycosylation sites N81, 97, 144 of the LPD (N346, 362, 409 in the construct) changed to Q by site-directed mutagenesis of pYD5-Fc-LPD; also called non-glycosylated form
In the case of B1, the EC50 [1] is reported as 58 nM, the “Ratio Fc-LPD-N346, 409, 456Q:Fc” value (Filaggrin-2) is reported as 0 and the “Ratio Fc-LPD-N346, 409, 456Q:Fc” value (Hornerin) is reported as 0.2. For the same binder, the “Ratio Fc-LPD-N346, 409, 456Q:Fc” value [2] was 30, the “Ratio Fc-LPD-N346, 409, 456Q:Fc” value [3] was 0.2 and the “Ratio Fc-LPD-N346, 409, 456Q:Fc” value [4] was 0.9. The “Ratio Fc-LPD-N346, 409, 456Q:Fc” value [5] was 1.8 and the “Ratio Fc-LPD-N346, 409, 456Q:Fc” value [6] was 0.1.
